Results on one molecule are retold here after patent US20230312753A1 (IMMUNORIZON, published 2023).

Test [1] deals with T1, NKG2A on NK92 cells (endogenous) (UniProt P26715 1-233, limits assumed).
T1 construct: whole, on cells
In words: FACS on NK92 cells, endogenous NKG2A (FIG. 45C). The protocol: Suspension cultured cells was harvested directly, and adherent cell were digested using TrypLE Express Enzyme (cat: 12604-013, supplier Life technologies). Centrifuge at 1000 rpm for 5 min and discard the supernatant. Cells are suspended at a concentration of 2×10⁶/mL in FACS buffer (2% FBS in PBS) and add 100 µL/well of cell suspension to the plate (cat #3799, supplier Corning). Centrifuging the plates at 2000 rpm for 5 min and discard the supernatant. Re-suspend the cells in 100 µL/well of Tribody set antibodies (400 nM start, 4-fold dilution, 8 point including 0 point) and incubate the plate for 60 min at 4° C. Centrifuge the plate at 2000 rpm, 4° C. for 5 min and discard supernatant. Then wash the cells 3 times with 170 µL FACS buffer. Re-suspend the cells at 100 µL/well with secondary antibody (goat anti-human Ig Fab-FITC, Cat # 2085-02, Southern biotech) with 1:400 dilution and incubate the plate for 30 min at 4° C. in dark. Centrifuge the plate at 2000 rpm, 4° C. for 5 min and discard supernatant. […] The fluorescence intensity of the staining was measured using flow cytometer (BD, FACSVerse). The geometric mean fluorescence intensity (GMFI; median fluorescence intensity (MFI)) of set antibodies staining was calculated (BD FACSuite software). Dose-response curves were generated and EC50s for thetrispecific variants binding were calculated using GraphPad Prism software.

For test [2], the target named is T2, NKG2A-CD94-ECD-hFc (human, UniProt P26715 94-233; Q13241 32-179, limits assumed).
T2 construct: extracellular domain; Lot 20200724002, 'provided by CP'; the two-chain layout here is only the reading of the name; also called human NKG2A (recombinant); NKG2A antigen; not shown: human Fc (hFc)
T2 sequence (P26715 94-233 limits assumed, chain 1 of 2): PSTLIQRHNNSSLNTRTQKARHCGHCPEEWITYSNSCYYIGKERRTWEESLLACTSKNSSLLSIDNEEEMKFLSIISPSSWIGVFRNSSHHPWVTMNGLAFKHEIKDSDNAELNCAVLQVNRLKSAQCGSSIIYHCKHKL
T2 sequence (Q13241 32-179 limits assumed, chain 2 of 2): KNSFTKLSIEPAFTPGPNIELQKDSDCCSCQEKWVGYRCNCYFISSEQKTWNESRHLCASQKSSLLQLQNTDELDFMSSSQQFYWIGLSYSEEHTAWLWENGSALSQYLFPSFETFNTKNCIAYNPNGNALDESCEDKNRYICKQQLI
Briefly: ELISA on coated NKG2A-CD94-ECD-hFc (FIG. 43C). The protocol:
(§1) Methods: ELISA binding of Tribody/ProTribody antibody constructs to antigens: Dilute target protein (hCD3epsilon-His (cat # 10977-H08S, supplier Sino Biological); h5T4-His (cat# 19845-H08H, supplier Sino Biological); NKG2A-CD94-ECD-hFc, Lot:20200724002, provided by CP; or NKG2D-ECD-hFc, Lot: 20200413002, provided by CP) into PBS with final concentration of 0.01 µg/mL for hCD3epsilon-His, 0.3 µg/mL for h5T4-His, 1 µg/mL for NKG2A-CD94-ECD-hFc and 0.7 µg/mL for hNKG2D-ECD-hFc respectively and coat 100 µL/well on ELISA plate (cat: 9018, supplier Corning) respectively. Incubate O/N, 4° C. The plates were blocked with 250 µL 1% BSA in PBST for 1 hr at 37° C.Wash 4 times with PBST. All the washes are done using Biotek (Elx 405). All the Tribody set antibodies were diluted to 400 nM and make 4-fold serially dilutions (12 points, including 0 point). Add 100 µL/well diluted antibody constructs solution to plate, incubate for 1 hr at 37° C.Wash 4 times with PBST. Add 100 µL/well anti-human kappa light chain-HRP (1:10000), incubate for 0.5 hr at 37° C. Wash 4 times with PBST. 100 µL/well of TMB substrate was added and incubated at room temperature for 5 min. 100 µL/well of 1N HCl to terminate reaction. Plates were read using ELISA plate reader at 450 nm wavelength (instrunet SpectraMax M5e). Data Analysis was performed using Graphpad prism 5 software by using nonlinear regression (curve fit): log (agonist) vs. response, agonist is antibody concentration (nM) and response is OD value.
A general note: An ELISA detects its analyte on a solid surface through an enzyme-linked reagent.

The target in test [3] is T2, NKG2A-CD94-ECD-hFc. Briefly: ELISA on coated NKG2A-CD94-ECD-hFc (FIG. 43D). On the procedure: as §1
The target in test [4] is T3, NKG2A/CD94 on CHO cells (CHOK1-NKG2A-CD94) (human, UniProt P26715 1-233; Q13241 1-179, limits assumed).
T3 construct: whole, on cells; also called CHO cells over-expressing NKG2A/CD94; CHO cell line over expressing ectopic NKG2A
T3 sequence (P26715 whole entry, chain 1 of 2): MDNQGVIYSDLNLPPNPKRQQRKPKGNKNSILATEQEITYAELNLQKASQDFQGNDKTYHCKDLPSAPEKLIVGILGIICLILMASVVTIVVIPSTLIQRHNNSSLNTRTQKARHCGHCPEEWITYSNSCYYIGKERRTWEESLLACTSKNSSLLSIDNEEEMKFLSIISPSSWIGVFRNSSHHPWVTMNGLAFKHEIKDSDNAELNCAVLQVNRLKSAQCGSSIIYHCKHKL
T3 sequence (Q13241 whole entry, chain 2 of 2): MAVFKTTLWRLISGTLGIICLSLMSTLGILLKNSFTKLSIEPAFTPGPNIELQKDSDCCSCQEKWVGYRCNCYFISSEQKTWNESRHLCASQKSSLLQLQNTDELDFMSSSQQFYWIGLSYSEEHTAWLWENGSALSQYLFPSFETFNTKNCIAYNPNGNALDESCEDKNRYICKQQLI
Briefly: FACS on CHO cells over-expressing human NKG2A (FIG. 45F). On the procedure:
(§2) Then wash the cells 3 times with 170 µL FACS buffer. Re-suspend the cells at 100 µL/well with secondary antibody (goat anti-human Ig Fab-FITC, Cat # 2085-02, Southern biotech) with 1:400 dilution and incubate the plate for 30 min at 4° C. in dark. Centrifuge the plate at 2000 rpm, 4° C. for 5 min and discard supernatant. Then wash the cells 3 times with FACS buffer and analyze the sample with FACS verse. The fluorescence intensity of the staining was measured using flow cytometer (BD, FACSVerse). The geometric mean fluorescence intensity (GMFI; median fluorescence intensity (MFI)) of set antibodies staining was calculated (BD FACSuite software). Dose-response curves were generated and EC50s for thetrispecific variants binding were calculated using GraphPad Prism software.
(§3) Results: The expressed trispecific constructs were analyzed for their binding to cells expressing endogenous CD3ε, 5T4 and NKG2A/NKG2D. […] (FIG. 45F).

The target in test [5] is T4, 5T4 on cells (NCI-H226 endogenous; CHO over-expressing 5T4) (UniProt Q13641 32-420, limits assumed).
T4 construct: whole, on cells
T4 sequence (looked up): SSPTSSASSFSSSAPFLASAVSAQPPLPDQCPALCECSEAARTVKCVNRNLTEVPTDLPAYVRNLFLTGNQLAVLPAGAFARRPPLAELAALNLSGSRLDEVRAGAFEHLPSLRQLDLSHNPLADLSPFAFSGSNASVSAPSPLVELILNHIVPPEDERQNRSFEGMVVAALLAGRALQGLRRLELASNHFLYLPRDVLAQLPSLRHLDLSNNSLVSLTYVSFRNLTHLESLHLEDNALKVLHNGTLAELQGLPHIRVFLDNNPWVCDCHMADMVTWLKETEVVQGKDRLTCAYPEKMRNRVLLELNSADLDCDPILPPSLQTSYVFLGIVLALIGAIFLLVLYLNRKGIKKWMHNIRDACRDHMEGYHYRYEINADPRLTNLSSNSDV
Briefly: FACS on CHO cells over-expressing ectopic 5T4 (FIG. 45D). The protocol:
as §2, §3

Test [6] concerns the target T5, hCD3epsilon-His (recombinant human CD3 epsilon) (human, UniProt P07766 23-126).
T5 construct: Bought protein; also called recombinant hCD3ε protein; human CD3ε
Briefly: ELISA on coated hCD3epsilon-His (FIG. 43A). On the procedure:
as §1, with “Data Analysis was performed using Graphpad prism 5 software by using nonlinear regression (curve fit): log (agonist) vs. response, agonist is antibody concentration (nM) and response is OD value.” left out

The target of test [7] is T3, NKG2A/CD94 on CHO cells …. In words: competitive FACS receptor-ligand blocking assay on CHOK1-NKG2A-CD94 cells, labelled ligand HLA-E PE (FIG. 49).

T5 sequence (P07766 23-126 limits assumed): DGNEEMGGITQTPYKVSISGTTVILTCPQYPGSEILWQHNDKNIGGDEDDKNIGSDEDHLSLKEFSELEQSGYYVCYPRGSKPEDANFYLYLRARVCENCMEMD
T1 sequence (P26715 whole entry): as the sequence (P26715 whole entry, chain 1 of 2) above

B1: IM-1062 Tribody (other)
heavy: GGSGGSEVQLVESGGGLVQPGGSLRLSCAASGFTFNTYAMNWVRQAPGKGLEWVARIRSKYNNYATYYADSVKDRFTISRDDSKNTLYLQMNSLRAEDTAVYYCVRHGNFGNSYVSWFAYWGQGTMVTVSSASTKGPSVFPLAPSSKSTSGGTAALGCLVKDYFPEPVTVSWNSGALTSGVHTFPAVLQSSGLYSLSSVVTVPSSSLGTQTYICNVNHKPSNTKVDKRVEPKSCPPCGGGGSDIQMTQSPSSLSASVGDRVTITCRASENIYSYLAWYQQKPGKAPKLLIYNAKTLAEGVPSRFSGSGSGTDFTLTISSLQPEDFATYYCQHHYGTPRTFGGGTKVEIKGGGGSGGGGSGGGGSGGGGSQVQLVQSGAEVKKPGASVKVSCKASGYTFTSYWMNWVRQAPGQGLEWMGRIDPYDSETHYAQKLQGRVTMTTDTSTSTAYMELRSLRSDDTAVYYCARGGYDFDVGTLYWFFDVWGQGTTVTVSS
light: GGSGGSQAVVTQEPSLTVSPGGTVTLTCRSSTGAVTTSNYANWVQQKPGQAPRGLIGGTNKRAPGTPARFSGSLLGGKAALTLSGVQPEDEAEYYCALWYSNLWVFGGGTKLTVLGQPKAAPSVTLFPPSSEELQANKATLVCLISDFYPGAVTVAWKADSSPVKAGVETTTPSKQSNNKYAASSYLSLTPEQWKSHRSYSCQVTHEGSTVEKTVAPTECPPCSGGGSDIQMTQSPSSLSASVGDRVTITCRASQGISNYLAWFQQKPGKAPKSLIYRANRLQSGVPSRFSGSGSGTDFTLTISSLQPEDVATYYCLQYDDFPWTFGQGTKLEIKGGGGSGGGGSGGGGSGGGGSQVQLVQSGAEVKKPGASVKVSCKASGYTFTSFWMHWVRQAPGQGLEWMGRIDPNRGGTEYNEKAKSRVTMTADKSTSTAYMELSSLRSEDTAVYYCAGGNPYYPMDYWGQGTTVTVSS
notes: Tri-specific antibody (Tribody): anti-CD3 epsilon Fab with an anti-5T4 scFv and an anti-NKG2A scFv, no regulatory domain; also called the Tribody format
As a reminder, the EC50 is the concentration needed to bring the measured effect to its halfway point. The term IC50 denotes the point on the concentration scale where inhibition reaches its midpoint. A lower IC50 goes with inhibition by little substance. B1: the half-maximal effective concentration (EC50) in test [1] turned out to be 6.5 nM; with NKG2A-CD94-ECD-hFc [2], 4.4 nM; with NKG2A-CD94-ECD-hFc [3] it was 5.7 nM; in test [4], 16 nM; in test [5], 0.9 nM; in test [6] it was 1.69 nM. The molecule also gave a 50% inhibitory concentration (IC50) in test [7] of 29 nM.
